# The RNAGym collection of RNA variant scans (doi:10.1073/pnas.2313332121)
# B1: TPR t1 (parent)
# chain: GACCAAUCUGCCCUCAGAGCUCGAGAACAUCUUCGGAUGCAGAGGAGGCAGGCUUCGGUGGCGCGAUAGCGCCAACGUCCUCAACCUCCAAUGCAUCCCACCACAUGAUGAUGCCUGAAGAGCCUUGGUUUUUUG
# Variants of: B1
# Assay: polymerase ribozyme fitness, log enrichment relative to wild type (log ratio); higher = more active; in vitro selection for triplet polymerase activity
# Outline: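 Fitness measures genotype enrichment against wild-type enrichment on a logarithmic scale, with inverse-variance-weighted averaging of replicates. The logarithm is base 2, and genotypes were kept only with ≥10 input reads and ≥1 read per output in Illumina sequencing. The sequenced libraries came from one triplicate in vitro selection round, including frozen incubation at −7 °C, of PCR-built, transcribed mutant libraries of each subunit of a heterodimeric triplet polymerase ribozyme.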
row,Variant,polymerase ribozyme fitness (log ratio)
1,GACCAAUCUGCCCUCAGAGCUCGAGAACAUCUUCGGAUGCAGAGGAGUUAGGCUUCGGUGGCGCGAUAGCCCCAACGUCCUCAACAUCCAAUGCAUCCCACCACAUGAUGAUGCCUGAAGAGCCUUGGUUUUUUG,-2.67
2,GACCAAUCUGCCCUCAGAGCUCGAGAACAUCUUCGGAUGCAGAGGAGUCAGGCUUCGGUGGCGCGAUAGCGCCAACGUCCUCAACCUCCAAUGCAUCCCACCACAUGAUGAUACCUGAAGAGCCUUGGUUUUUUG,-1.18
3,GACCAAUCUGCCCUCAGAGCUCGAGAACAUCUUCGGAUGCAGAGGAGUCAGGCCUCGGUGGCGCGAUAGCUCCAACGUCCUCAACCUCCAAUGCAUCCCACCACAUGAUGAUGCCCGAAGAUCCUUGGUUUUUUG,-2.51
4,GACCAAUCUGCCCUCAGAGCUCGAGAACAUCUUCGGAUGCAGAGGAGUCAGGCUGCGGUGUCGCGAUAGCGCCAACGUCCUCAACCUCCAAUGCAUCCCACCACAUGAUGAUGCCUGAAGAGCCUUGGUUUUUUG,-0.0419
5,GACCAAUCUGCCCUCAGAGCUCGAGAACAUCUUCGGAUGCAGAGGAGUCAGGCUUCGGUGGCGCGAUAGCGCCAACGUCCUCAACCUCAAAUGCAUCCCACCACAUGAUGAUGCCUGAAGAGCCUUGGUUUUUUG,-1.52
6,GACCAAUCUGCCCUCAGAGCUCGAGAACAUCUUCGGAUGCAGAGGAGUCAGGCUUCGGUGGCGCGAUAGCGUAAACGUCCUCAACCUCCAAUGCAUCCCACCACAUGAUGAUGCCUGAAGAGCCUUAGUUUUUUC,-1.64
7,GACCAAUCUGCCCUCAGAGCUCGAGAACAUCUUCGGAUGCAGAGGAGUCAGGCUUCGGUGGGGCGAUAGCGCCAACGUCCUCAACCUCCAAUGCAUCCCACCACAUGAUGAUGCCUGAAGAGCCUUGGUUUUUUG,-3.39
8,GACCAAUCUGCCCUCAGAGCUCGAGAACAUCUUCGGAUGCAGAGGAGUCAGGCUUCGGUGGAGCGAUAGCGCCAACGUCCUCAACCUCCAAUGCAUCCCACCACAUGAUGAUGCCUGAAGAGCCUUGGUUUUUUG,-1.81
9,GACCAAUCUGCCCUCAGAGCUCGAGAACAUCUUCGGAUGCAGAGGAGUCAGGCUUCGGUGGCGCGAUAGCGCCAACGUCCUCAACCUCCAAUGCAUCCCACCACAUGAUGAUGCCUCAAGAGCCUUGGUUUUUUG,-4.06
10,GACCAAUCUGCCCUCAGAGCUCGAGAACAUCUUCGGAUGCAGAGGAGUGAGGCUUCGGUGGCUCGAUAGCGCCAACGUCCUCAACCUCCAAUGCAUCCCACCACAUGAUGAUGCCUGAAGAGCCUUGGUUUUUUG,-1.73
11,GACCAAUCUGCCCUCAGAGCUCGAGAACAUCUUCGGAUGCAGAGGAGUCAGGCUUCGGUGGCGCGAUAGCGCCAACGUCCUCAACCUCCAAUGCAUCCCACCACAUGAUGAUGCCUGAAUAGCCUUGGUUUUUUG,-0.428
12,GACCAAUCUGCCCUCAGAGCUCGAGAACAUCUUCGGAUGCAGAGGAGUCAGGCUUCGGUGGCGCGAUAUCGCCAACGUCCUCAACCUCCAAUGCAUCCCACCACAUGAUGAUGCCUGAAGAGCCUUGGUUUUUUA,-1.62
13,GACCAAUCUGCCCUCAGAGCUCGAGAACAUCUUCGGAUGCAGAGGAGUCGGGCUUCGGUGGCGCGAUAGCGCCAACGUCCUCAACCUCCAAUGCAUCCCACCACAUGAUGAUGCCUGAAGAGCCUUGGUUUUUUG,-1.02
14,GACCAAUCUGCCCUCAGAGCUCGAGAACAUCUUCGGAUGCAGAGGAGUCAGGCUUCGGUGGCGCGAUAGCGCCAACGUCCUCAACCUCCAAUGCAUCCCACCACAUGAUGAUGCCUGAAGUGCCUUGGUUUUUUG,0.519
15,GACCAAUCUGCCCUCAGAGCUCGAGAACAUCUUCGGAUGCAGAGGAGUCAGGCUUCGGUGGCGCGAUAGCGCCAACGUCCUCAACCUCCAAUGCAUCCCACCACAUGAUUAUGCCUGAAGAGCCUUGGUUUUUUG,-2.84
16,GACCAAUCUGCCCUCAGAGCUCGAGAACAUCUUCGGAUGCAGAGGAGUGAGGCUUCGGUGGCGCGAUAGCGCCAACGUCCUCAACCUCCAAUGCAUCCCACCACAUGAUGAUGCCUGAAGAGCCUUGGUUUUUUG,-0.587
17,GACCAAUCUGCCCUCAGAGCUCGAGAACAUCUUCGGAUGCAGAGGAGUCAGGCUUCGGUGGCGCGAUAGCGCCAACGUCCUCAACCUCCAAUGCAUCCCACCACAUGAUGAUGCCUGAAGAGCCUUGGUUUUUUG,-0.903
18,GACCAAUCUGCCCUCAGAGCUCGAGAACAUCUUCGGAUGCAGAGGAGUCAGGCUUCGGUGGGGCGAUAGCGCCAACGUCCUCAACCUCCAUUGCAUCCCACCACAUGAUGAUGCCUGAAGAGUCAUGGUUUUUUG,-5.93
19,GACCAAUCUGCCCUCAGAGCUCGAGAACAUCUUCGGAUGCAGAGGAGUCAGGCUUCGUUUGCGCGAUAGCGCCAACGUCCUGAACCUCCAAUGCAUCCCACCACAUGAUGAUGCCUGAAGAGCCUUGGUUUUUUG,0.276
20,GACCAAUCUGCCCUCAGAGCUCGAGAACAUCUUCGGAUGCAGAGGAGUCAGGCUUCGGUGGCGCGAUAGCGCCAACGUCCUCAACCUCCAAAGCAUCCCACCACAUGAUGAUGCCUGAAGAGCCUUGGUUUUUUG,-3.38
21,GACCAAUCUGCCCUCAGAGCUCGAGAACAUCUUCGGAUGCAGAGGAGUCAGGCUUGGGUGGCGUGAUAGCGCCAACGUCCUCAACCUCCAAUGCAUCCCAACACAUGAUGAUGCCUGAAGAGCCUUGGUUUUUUG,-2.95

row,Variant,polymerase ribozyme fitness (log ratio)
1,GACCAAUCUGCCCUCAGAGCUCGAGAACAUCUUCGGAUGCAGAGGAGUCAGGCUUCGGUGGCGCGAUAGCGCCAACGUCCUCAACCUCCAAUGCAUCCUACCACAUGAUGAUGCCUGAAGAGCCUUGGUUUUUUG,-3.34
2,GACCAAUCUGCCCUCAGAGCUCGAGAACAUCUUCGGAUGCAGAGGAGUCAGGCUUCGGUGGCGCGAUAGCGCCAACGUCCUCAACCUCCAAUACAUCCCACCACAUGAUGAUGCCUGAAGAGCCUUGGUUUUUUG,-0.946
3,GACCAAUCUGCCCUCAGAGCUCGAGAACAUCUUCGGAUGCAGAGGAGUCAGGCUUCGGUGGCUCGAUAGCGUCAACGUCCUCAACAUCCACUGCAUCCCACCACAUGAUGAUGCCUGAAGAGCCUUGGUUUUUUG,-5.91
4,GACCAAUCUGCCCUCAGAGCUCGAGAACAUCUUCGGAUGCAGAGGAGUCAGGCUUCGGUGGCGCGAUAGCGACAACGUCCUCAACCUCCAAUGCAUCCCACCACAUGAUGAUGCCUGAAGAGCCUUGGUUUUUUG,-0.467
5,GACCAAUCUGCCCUCAGAGCUCGAGAACAUCUUCGGAUGCAGAGGAGUCAGGCUUCGGAGGCGCGAUAGCGCCAACGUCCUCAACCUCCAAUGCAUCCCACCACAUGAUGAUGCCCGAAGAGCUUUGGUUUUUUG,-0.336
6,GACCAAUCUGCCCUCAGAGCUCGAGAACAUCUUCGGAUGCAGAGGAGUCAGGCCUCGGUGGCGCGAUAGCGCCAACGUCCUCAACCUCCAAUGCAUCCCAUCACAUGAUGAUGCCUGAAGAGCCUUGGUGUUUUG,-1.13
7,GACCAAUCUGCCCUCAGAGCUCGAGAACAUCUUCGGAUGCAGAGGAGUCGGGCUUCGCUGGCGCGAUAGCGCCAACGUCCUCAACCUCCAAUGCAUCCCACCACAUGAUGAUGCCUUAAGAACCUUGGUUUUUUG,-4.46
8,GACCAAUCUGCCCUCAGAGCUCGAGAACAUCUUCGGAUGCAGAGGAGUCAGGCUUCGGUGGCGCGAUAGCGCCAACGUCCUCACCCUCCAAUGCAUCCCACCACAUGAUGAUGUCGGAAGAGCCUUGGUUUAUUG,-7.04
9,GACCAAUCUGCCCUCAGAGCUCGAGAACAUCUUCGGAUGCAGAGGAGUCAGGCUUCCGUGGCGCGAUAGCGCCAACGUCCUCAACCUCCAAUGCAACCCACCACAUGAUGAUGCCUGAAGAGCCUUGGUUUUUUG,-1.49
10,GACCAAUCUGCCCUCAGAGCUCGAGAACAUCUUCGGAUGCAGAGGAGUCAGGCUUCGGUGGCGCGAUAACGCCAACGUCCUCAACCUCCAAUGCAUCCCACCACAUGAUGAUGCCUGAAGAGCCUUGGUUUUUUU,-5.98
11,GACCAAUCUGCCCUCAGAGCUCGAGAACAUCUUCGGAUGCAGAGGAGUCAGGCUUGGGUGGCGCGAUAGCGCCAACGUCGUCAACCUCCAAUGCAUCCCACCACAUGAUGAUGCCUGAAGAGCCUUGGUUUUUUG,-3.4
12,GACCAAUCUGCCCUCAGAGCUCGAGAACAUCUUCGGAUGCAGAGGAGUCAGGCGUCGCUGGCGCGAUAGCGCCAACGUCCUCAACCUCCAAUGCAUCCCACCACAUGAUGAUGCCUGAAGAGCCUUGGAUUUUUG,-2.45
13,GACCAAUCUGCCCUCAGAGCUCGAGAACAUCUUCGGAUGCAGAGGAGUCAGGCUUCGGUGGCGCGAUAGCGCCAACGUCCUCAACCUACACUGCAUCCCACCACAUGAUGAUGCCUGAAGAGCCUUGGUUUUUUG,-2.5
14,GACCAAUCUGCCCUCAGAGCUCGAGAACAUCUUCGGAUGCAGAGGAGUCAGGCUUCGGUGGCGCGAUAGCGCCAACGUCCUCAACCUCCAAUGCAUCCCACCACAUUAUGCUGCCUGAAGAGACUUGGUUUUUUG,-5.41
15,GACCAAUCUGCCCUCAGAGCUCGAGAACAUCUUCGGAUGCAGAGGAGUCAGGCUUCGGUGGCGCGAUAGCGCCAACGUCCUCAACCGCCAAUGCAUCCCACCACAUGAUGAUGCGUGAAGAGCCUUGGUUUUUUG,-0.14
16,GACCAAUCUGCCCUCAGAGCUCGAGAACAUCUUCGGAUGCAGAGGAGUCAGGCUUCGGUGGCGUGAUAGCGCCAACGUCCUCAACCUCCAAUGCAUCCCACCACAUGAUGAUGCCUGAAAAGUCUUGGUUUUUUG,0.28
17,GACCAAUCUGCCCUCAGAGCUCGAGAACAUCUUCGGAUGCAGAGGAGUCAGGCUUCGGUGGUGCGAUAGCGCCAACGUCCUCACCCUCCAAUGCAUCCCACCACAUGAUGAUGCAUGAAGAGCCUUGGUUUUUUG,-1.79
18,GACCAAUCUGCCCUCAGAGCUCGAGAACAUCUUCGGAUGCAGAGGAGUCAGGCUUCGGUGGCGCGAUAGCGCCAACGUACUCAACCUCCAAUGCAUCCCACCACAUGAUGAAGCCUGAAGAGCCUUGGUUUUUUG,-2.84
19,GACCAAUCUGCCCUCAGAGCUCGAGAACAUCUUCGGAUGCAGAGGAGUCAGGCUUCGGUGGCGCGAUAGCGCCAACGUCCUCAACCUCCAAUGCAUCCCACCACAUGAUGAUGCCUGAAGAGACUAGGUUUUUUG,-2.05
20,GACCAAUCUGCCCUCAGAGCUCGAGAACAUCUUCGGAUGCAGAGGAGUCAGGCUUCGGUGGCGCGAUAGCGCCAACGUCCUUAACCUCCAAUGCAUCCCACCACAUGAUGAUGCCUGAAGAGCCUUGGUUUUUUG,-1.32
21,GACCAAUCUGCCCUCAGAGCUCGAGAACAUCUUCGGAUGCAGAGGAGUUAGGCUUCGGUGGCGCGAUAGCGAAAACGUCCUCAACCUCCAAUGCAUCCCACCACAUGAUGAUGCCUGAAGAGCCUUGGUUCUUUG,-2.61
